These results are taken from patent US20260078416A1, “ORTHOGONAL METABOLIC FRAMEWORK FOR ONE-CARBON UTILIZATION” (Mojia Biotech Pte. Ltd., priority 2021, published 2026).

This experiment concerns formaldehyde. Put plainly: Cell-free prototyping of the α-reduction FORCE pathway with E. coli cell extracts. As to conditions: 50 mM formaldehyde. Type of experiment: biochemical. The source says:
A cell-free metabolic engineering approach was used to further prototype the FORCE pathways for product synthesis. […] As shown in FIG. 2 (in the formyl-CoA elongation panel), outside of the direct generation of 2-hydroxycarboxylates (e.g. glycolate) via thioester cleavage of the 2-hydroxyacyl-CoA generated by HACL, other C2 products, (including the aldose or aldehyde elongation pathways) require reduction of this 2-hydroxyacyl-CoA (glycolyl-CoA in the case of formaldehyde and formyl-CoA ligation). Listeria monocytogenes ACR (LmACR) are also able to act upon glycolaldehyde. […] With the inclusion of the previously identified HACL from Rhodospirillales bacterium URHD0017 (RuHACL), glycolate was observed.
Upon further addition of E. coli cell extract expressing diol dehydratase (DDR) from Klebsiella oxytoca, along with coenzyme B12, ethanol was detected (1.90±0.03 mM at one hour: FIG. 5b), likely due to the reduction of acetaldehyde by endogenous oxidoreductases, along with a corresponding decrease in ethylene glycol. […]
Enzyme expression and cell extract preparation was performed as described previously. […] Samples were centrifuged at 20817×g for 15 minutes and the supernatant analyzed by HPLC as described previously.

B1: E. coli FucO: E. coli 1,2-diol oxidoreductase, added as cell extract (protein, UniProt P0A9S1 1-382, looked up)
Lactaldehyde reductase: MANRMILNETAWFGRGAVGALTDEVKRRGYQKALIVTDKTLVQCGVVAKVTDKMDAAGLAWAIYDGVVPNPTITVVKEGLGVFQNSGADYLIAIGGGSPQDTCKAIGIISNNPEFADVRSLEGLSPTNKPSVPILAIPTTAGTAAEVTINYVITDEEKRRKFVCVDPHDIPQVAFIDADMMDGMPPALKAATGVDALTHAIEGYITRGAWALTDALHIKAIEIIAGALRGSVAGDKDAGEEMALGQYVAGMGFSNVGLGLVHGMAHPLGAFYNTPHGVANAILLPHVMRYNADFTGEKYRDIARVMGVKVEGMSLEEARNAAVEAVFALNRDVGIPPHLRDVGVRKEDIPALAQAALDDVCTGGNPREATLEDIVELYHTAW
modifications: added as cell extract
notes: E. coli 1,2-diol oxidoreductase, added as cell extract
In turn, B1 gave an ethylene glycol synthesis (extract added to LmACR and RuHACL extracts) of 2.73 ± 0.03 mM. Besides, under “vs without the added extract”, the “increase in ethylene glycol” value was found to be 2 fold.
